The numbers were not newly measured in patent US9205345B2, “Spray-drying apparatus and methods of using the same” (Bend Research, Inc., priority 2010, dated 2015), which cites them from elsewhere.

Assay in data set [1]: not given
The source holds these as a separate data set.

Assay in data set [2]: not given
The source holds these as a separate data set.

By Log P is commonly meant a log measure of how a compound divides between an organic and an aqueous phase. Consider `CC(C)(C)NCC(O)c1ccc(O)c(CO)c1` (centres unmarked) [Active Agent 1, 4-[2-(tert-butylamino)-1-hydroxyethyl]-2-(hydroxymethyl)phenol, reference compound], for which the solubility in water entry was “freely soluble in water”. Also, the log partition coefficient (Log P) in data set [1] is 0.11. For Peptide YY (PYY) [Active Agent 3], the solubility in water result is listed as “soluble in water”. Usually pKa stands for the pH at which an ionisable group is half protonated. With insulin [Active Agent 2], the log partition coefficient (Log P) in data set [1] was 0.22. Also, the pKa in data set [2] was 5.39.
